Data on 21 molecules can be found in US20110223168A1 (published 2011).

Sequences and labels used below:
B1: TAR1-5-19 3U homodimer (other)
chain: DIQMTQSPSSLSASVGDRVTITCRASQSIDSYLHWYQQKPGKAPKLLIYSASELQSGVPSRFSGSGSGTDFTLTISSLQPEDFATYYCQQVVWRPFTFGQGTKVEIKRGGGGSGGGGSGGGGSDIQMTQSPSSLSASVGDRVTITCRASQSIDSYLHWYQQKPGKAPKLLIYSASELQSGVPSRFSGSGSGTDFTLTISSLQPEDFATYYCQQVVWRPFTFGQGTKVEIKR
notes: also called TAR1-5-19 homodimer with (Gly4Ser)3 linker
B2: TAR1-5-19 7U homodimer (other)
chain: DIQMTQSPSSLSASVGDRVTITCRASQSIDSYLHWYQQKPGKAPKLLIYSASELQSGVPSRFSGSGSGTDFTLTISSLQPEDFATYYCQQVVWRPFTFGQGTKVEIKRGGGGSGGGGSGGGGSGGGGSGGGGSGGGGSGGGGSDIQMTQSPSSLSASVGDRVTITCRASQSIDSYLHWYQQKPGKAPKLLIYSASELQSGVPSRFSGSGSGTDFTLTISSLQPEDFATYYCQQVVWRPFTFGQGTKVEIKR
notes: also called TAR1-5-19 homodimer with (Gly4Ser)7 linker
B3: TAR1-5-19 5U homodimer (other)
chain: DIQMTQSPSSLSASVGDRVTITCRASQSIDSYLHWYQQKPGKAPKLLIYSASELQSGVPSRFSGSGSGTDFTLTISSLQPEDFATYYCQQVVWRPFTFGQGTKVEIKRGGGGSGGGGSGGGGSGGGGSGGGGSDIQMTQSPSSLSASVGDRVTITCRASQSIDSYLHWYQQKPGKAPKLLIYSASELQSGVPSRFSGSGSGTDFTLTISSLQPEDFATYYCQQVVWRPFTFGQGTKVEIKR
notes: also called TAR1-5-19 homodimer with (Gly4Ser)5 linker
B4: TAR1-5-19CYS dimer (other)
VL: DIQMTQSPSSLSASVGDRVTITCRASQSIDSYLHWYQQKPGKAPKLLIYSASELQSGVPSRFSGSGSGTDFTLTISSLQPEDFATYYCQQVVWRPFTFGQGTKVEIKRC
modifications: C-terminal Cys forms the disulphide between the two chains
notes: Dimer via the engineered C-terminal cysteine, purified by protein L and cation exchange; also called TAR1-5-19CYS disulphide dimer
B5: TAR1-5-19, MSA16 cys bonded heterodimer (bispecific antibody, V domains shown)
V domain 1: DIQMTQSPSSLSASVGDRVTITCRASQSIDSYLHWYQQKPGKAPKLLIYSASELQSGVPSRFSGSGSGTDFTLTISSLQPEDFATYYCQQVVWRPFTFGQGTKVEIKR
V domain 2: DIQMTQSPSSLSASVGDRVTITCRASQSIIKHLKWYQQKPGKAPKLLIYGASRLQSGVPSRFSGSGSGTDFTLTISSLQPEDFATYYCQQGARWPQTFGQGTKVEIKR
modifications: C-terminal Cys disulphide bonded to the C-terminal Cys of the MSA16 chain ; Chain 1 pos 109 Cys and chain 2 pos 109 Cys are joined by an intermolecular disulphide bond, made by chemical coupling via dithiodipyridine activation.
notes: Made by chemical coupling via a disulphide bond; separated from monomers by cation exchange; also called disulphide bonded heterodimer of TAR1-5-19 dAb and MSA16 dAb; cys bonded TAR1-5-19, MSA16 dimer
B6: TAR1-27d16 (other)
chain: DIQMTQSPSSLSASVGDRVTITCRASQSIWTKLHWYQQKPGKAPKLLIYMASSLQSGVPSRFSGSGSGTDFTLTISSLQPEDFATYYCQQWFSNPSTFGQGTKVEIKRGGGGSGGGGSGGGGSDIQMTQSPSSLSASVGDRVTITCRASQSIGPNLEWYQQKPGKAPKLLIYAASSLQSGVPSRFSGSGSGTDFTLTISSLQPEDFATYYCQQQMGRPRTFGQGTKVEIKR
notes: dAb-linker-dAb dimer; also called TAR1-27 dimer d16
B7: TAR1-5d1 (other)
chain: DIQMTQSPSSLSASVGDRVTITCRASQSIFMNLLWYQQKPGKAPKLLIYNASVLQSGVPSRFSGSGSGTDFTLTISSLQPEDFATYYCQQVVWRPFTFGQGTKVEIKRGGGGSGGGGSGGGGSDIQMTQSPSSLSASVGDRVTITCRASQSIYDALEWYQQKPGKAPKLLIYTASRLQSGVPSRFSGSGSGTDFTLTISSLQPEDFATYYCQQVMQRPVTFGQGTKVEIKR
notes: dAb-linker-dAb dimer; also called TAR1-5 dimer 1
B8: TAR1-5d4 (other)
chain: DIQMTQSPSSLSASVGDRVTITCRASQSIFMNLLWYQQKPGKAPKLLIYNASVLQSGVPSRFSGSGSGTDFTLTISSLQPEDFATYYCQQVVWRPFTFGQGTKVEIKRGGGGSGGGGSGGGGSGGGGSGGGGSDIQMTQSPSSLSASVGDRVTITCRASQSVKEFLWWYQQKPGKAPKLLIYMASNLQSGVPSRFSGSGSGTDFTLTISSLQPEDFATYYCQQKFKLPRTFGQGTKVEIKR
notes: dAb-linker-dAb dimer; also called TAR1-5 dimer 4
B9: TAR1-5d6 (other)
chain: DIQMTQSPSSLSASVGDRVTITCRASQSIFMNLLWYQQKPGKAPKLLIYNASVLQSGVPSRFSGSGSGTDFTLTISSLQPEDFATYYCQQVVWRPFTFGQGTKVEIKRGGGGSGGGGSGGGGSGGGGSGGGGSGGGGSGGGGSDIQMTQSPSSLSASVGDRVTITCRASQSIYDALEWYQQKPGKAPKLLIYTASRLQSGVPSRFSGSGSGTDFTLTISSLQPEDFATYYCQQVMQRPVTFGQGTKVEIKR
notes: dAb-linker-dAb dimer; also called TAR1-5 dimer 6
B10: TAR1-5d5 (other)
chain: DIQMTQSPSSLSASVGDRVTITCRASQSIFMNLLWYQQKPGKAPKLLIYNASVLQSGVPSRFSGSGSGTDFTLTISSLQPEDFATYYCQQVVWRPFTFGQGTKVEIKRGGGGSGGGGSGGGGSGGGGSGGGGSDIQMTQSPSSLSASVGDRVTITCRASQSIYDALEWYQQKPGKAPKLLIYTASRLQSGVPSRFSGSGSGTDFTLTISSLQPEDFATYYCQQVMQRPVTFGQGTKVEIKR
notes: dAb-linker-dAb dimer; also called TAR1-5 dimer 5
B11: TAR1-5-19 d1 (other)
chain: B7 chain with F30D, M31S, N32Y, L34H, N50S, V53E
notes: TAR1-5-19 substituted for TAR1-5 in lead clone d1
B12: TAR1-5-19 d6 (other)
chain: B9 chain with F30D, M31S, N32Y, L34H, N50S, V53E
B13: TAR1-5-19d5 (other)
chain: B10 chain with F30D, M31S, N32Y, L34H, N50S, V53E
B14: TAR1-5-19 cys hinge dimer (other)
chain: DIQMTQSPSSLSASVGDRVTITCRASQSIDSYLHWYQQKPGKAPKLLIYSASELQSGVPSRFSGSGSGTDFTLTISSLQPEDFATYYCQQVVWRPFTFGQGTKVEIKREPKSGDKTHTCPPCP
modifications: hinge cysteines form the cystine bond(s) between the two chains
notes: Dimerises in the periplasm; FPLC purified dimer fraction tested; also called cysteine hinge linker format
B15: TAR1-5CH/dAb1 CK Fab (Fab, V domains shown, not shown: large carriers)
V domain 1: B5 V domain 1 with D30F, S31M, Y32N, H34L, S50N, E53V
V domain 2: B5 V domain 1 with D30Y, S31D, Y32A, H34E, S50T, E53R, V92M, W93Q, F96V
B16: dAb3CH/TAR1-5CK Fab (Fab, V domains shown, not shown: large carriers)
V domain 1: DIQMTQSPSSLSASVGDRVTITCRASQSVKEFLWWYQQKPGKAPKLLIYMASNLQSGVPSRFSGSGSGTDFTLTISSLQPEDFATYYCQQKFKLPRTFGQGTKVEIKR
V domain 2: B5 V domain 1 with D30F, S31M, Y32N, H34L, S50N, E53V
notes: also called TAR1-5CK d3CH
B17: dAb1 CH/TAR1-5-19CK Fab (Fab, V domains shown, not shown: large carriers)
V domain 1: B5 V domain 1 with D30Y, S31D, Y32A, H34E, S50T, E53R, V92M, W93Q, F96V
V domain 2: B5 V domain 1
notes: also called TAR1-5-19CK d1CH
B18: TAR1-5-19CH/dAb3CK Fab (Fab, V domains shown, not shown: large carriers)
V domain 1: B5 V domain 1
V domain 2: B16 V domain 1
notes: also called TAR1-5-19CH d3CK
B19: TAR1-5-19CH/dAb1 CK Fab (Fab, V domains shown, not shown: large carriers)
V domain 1: B5 V domain 1
V domain 2: B5 V domain 1 with D30Y, S31D, Y32A, H34E, S50T, E53R, V92M, W93Q, F96V
notes: also called TAR1-5-19CH d1CK
B20: MSA16 (other)
VL: DIQMTQSPSSLSASVGDRVTITCRASQSIIKHLKWYQQKPGKAPKLLIYGASRLQSGVPSRFSGSGSGTDFTLTISSLQPEDFATYYCQQGARWPQTFGQGTKVEIK
notes: also called clone 16; clone 21
B21: MSA26 (other)
VL: B20 VL with I30Y, K31Y, G50K, R53T, G91V, A92R, R93K, W94V, Q96R
notes: also called clone 26; clone 25

Residue numbers refer to the chain shown, from its start.

The IC50 is the concentration needed to halve the response being measured. Low values mean inhibition by little substance, high ones a need for much substance. As usually defined, the Kd is the constant that tells how readily two partners part at equilibrium.

T2 sequence (P07724 25-608 limits assumed): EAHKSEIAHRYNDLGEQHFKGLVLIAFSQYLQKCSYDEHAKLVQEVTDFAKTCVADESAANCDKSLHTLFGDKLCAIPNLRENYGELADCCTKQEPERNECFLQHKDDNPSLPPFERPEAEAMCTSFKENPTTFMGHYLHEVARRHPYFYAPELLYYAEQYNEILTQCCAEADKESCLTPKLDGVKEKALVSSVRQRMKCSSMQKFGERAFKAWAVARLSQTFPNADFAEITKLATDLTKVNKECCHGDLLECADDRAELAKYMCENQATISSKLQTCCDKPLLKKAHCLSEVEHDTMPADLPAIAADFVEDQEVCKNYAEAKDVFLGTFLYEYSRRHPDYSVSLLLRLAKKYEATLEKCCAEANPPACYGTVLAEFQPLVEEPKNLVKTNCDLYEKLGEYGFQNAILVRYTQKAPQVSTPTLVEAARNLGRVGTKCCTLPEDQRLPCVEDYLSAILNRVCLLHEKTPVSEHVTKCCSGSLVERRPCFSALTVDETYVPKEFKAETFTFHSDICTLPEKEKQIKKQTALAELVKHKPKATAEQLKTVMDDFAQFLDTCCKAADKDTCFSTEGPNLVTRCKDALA

The first test deals with T1, human TNFα (human, UniProt P01375 77-233). In words: cell-based or functional assay.
T1 sequence (P01375 77-233 limits assumed): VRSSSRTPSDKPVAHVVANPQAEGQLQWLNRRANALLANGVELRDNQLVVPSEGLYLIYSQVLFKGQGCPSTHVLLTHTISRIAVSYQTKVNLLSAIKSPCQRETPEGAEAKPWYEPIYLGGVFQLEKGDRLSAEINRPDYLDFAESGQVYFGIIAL
In the case of B1, the “CA (cell assay, ND50)” value was ~30 nM. Consider B2, for which the “CA (cell assay, ND50)” value is ~15 nM. With B3, the “CA (cell assay, ND50)” value is ~3 nM.

The target of another test is T1, human TNFα. In words: TNF receptor assay: inhibition of TNF binding to TNFR1-Fc (ELISA).
Consider B4, for which the 50% inhibitory concentration (IC50) fell in the range of 0.3 to 0.8 nM.

Take B5: the IC50 is ~18 nM. Consider B6, for which the IC50 was ~50 nM.

In a further test the target is T1, human TNFα. The description is as above. This is another data set of the same source.
Turning to B7, the IC50 was ~30 nM.

On to B8, for which the IC50 was ~3 nM. For the molecule B9, the IC50 is ~100 nM. As for B10, the IC50 was ~200 nM.

The target of a further test is T1, human TNFα. The description is as above. This is another data set of the same source.
In the case of B11, the IC50 is ~15 nM.

With B12, the IC50 is ~10 nM. For B13, the half-maximal inhibitory concentration (IC50) is ~8 nM.

The next test deals with T1, human TNFα. The description is as above. This is another data set of the same source.
For B1, the IC50 is ~20 nM. As for B14, the IC50 is ~2 nM. As for B2, the IC50 is ~10 nM.

As to B3, the IC50 was ~2 nM.

The next test has as its target T1, human TNFα. The description is as above. This is another data set of the same source.
With B15, the IC50 was ~90 nM. Turning to B16, the IC50 was ~100 nM. Regarding B17, the IC50 is ~6 nM. For B18, the IC50 is ~3 nM. With B19, the IC50 is ~6 nM.

Another test concerns the target T2, mouse serum albumin (MSA) (mouse, UniProt P07724 25-608).
T2 construct: Used coated, on a CM5 chip, in solution and biotinylated (about 2 biotins per molecule); also called biotinylated MSA
Nature of the test: inhibition biacore: dAb premixed with MSA, binding to MSA-coated CM5 chip, Klotz plot (estimated Kd). The protocol: Briefly, the dAbs were tested to determine the concentration of dAb required to achieve 200 RUs of response on a biacore CM5 chip coated with a high density of MSA. Once the required concentrations of dAb had been determined, MSA antigen at a range of concentrations around the expected Kd was premixed with the dAb and incubated overnight. Binding to the MSA coated biacore chip of dAb in each of the premixes was then measured at a high flow-rate of 30 μl/minute.
The purified dAbs were then analysed by inhibition biacore to determine Kd. […] Once the required concentrations of dAb had been determined, MSA antigen at a range of concentrations around the expected Kd was premixed with the dAb and incubated overnight. Binding to the MSA coated biacore chip of dAb in each of the premixes was then measured at a high flow-rate of 30 μl/minute.
Take B20: the Kd is 200 nM. Take B21: the Kd was 70 nM.
